Assay results reported in patent publication US6107069A, “Recombinant kynurenine-3-hydroxylase enzyme and process for its preparation” (priority 1996, dated 2000).

Legend:
[1] = Activity of recombinant kyn-3-OHase expressed in E. coli (conversion of L-kyn to 3-OH-Kyn); format: biochemical, human; conditions: cells induced 2 h at 37° C. with 1 mM IPTG; 500 μM L-kyn, 1 hour at 37° C.
Method: Recombinant kyn-3-OHase activity measured in cells grown at 37° C. until the OD600 reached 0.6, induced for 2 hours at 37° C. adding 1 mM IPTG was about 10 nmol/h·mg protein, enzymatic activity of uninduced cells in the same conditions was less than 5% (homogenates incubated for 1 hour at 37° C. with 500 μM L-kyn; see Example 5c).

[2] = Rat kyn-3-OHase activity expressed in X. laevis oocytes (conversion of L-kyn to 3-OH-Kyn); format: biochemical
Method: Individual oocytes of stages were obtained by gentle agitation in ND solution plus 1-2mg/ml collagenase for 60-90 min. They were then maintained at 18° C. in ND solution enriched with 1.8 mM CaCl2 and 20 mg/l gentamycin. Oocytes of stages 5 and 6 were injected 24 hours later with 50 nl RNA or water (N. Dascal and I. Lotan 1992. Methods in Mol. Biol. 13: 205-225).
Oocytes were injected with a Drummond Nanoject microdispenser. To avoid accidental injection into the nucleus, the needle was inserted close to the equator or in the vegetal (light) half of the oocytes. 1-3 days after injection the oocytes were assayed for kyn-3-OHase.
Plasmid DNA was isolated by standard procedures (alkaline lysis followed by a purification on Qiagen resin; Kontron Zurich). Plasmids were linearized with Not I and used for in vitro synthesis and capping of cRNA using T7 RNA polymerase (Stratagene) and following the supplier's instructions. Initially the library was divided into 25 pools of ~2000 colonies; cRNA obtained transcribing the insert of each pool of colonies was injected in the oocytes and screened for the expressed kyn-3-Ohase activity (See Example 1c for the methods). The positive pool identified for its kyn-3-OHase expressed activity (175 pmoles/h/mg protein: about 30 fold higher than that induced by the injection of total kidney poly (A)^+ RNA) was then split into several sub-pools and assayed with the same procedure.
Xenopus l. oocytes were first injected with 25 ng of poly(A)^+ RNA isolated from rat kidney.
Increasing doses (range 0.1-25 ng) of cRNA, obtained from the positive clone, were injected into oocytes which were then tested for kyn-3-OHase activity in the presence of 100 mM of L-kyn. A linear dose-dependent effect was observed up to 5 ng cRNA/oocyte. At this dose the kyn-3-OHase activity was 35.7 nmoles/h/mg protein. No further increase of the activity was measured when higher cRNA doses were injected.

[3] = 5 steps purification from rat liver (Nisimoto 1975); cited from earlier work
[4] = purified from rat liver (Nisimoto 1975); cited from earlier work
[5] = last round of library screening, cRNA-injected oocytes

B1: Recombinant kyn-3-OHase: human kynurenine-3-hydroxylase, deduced protein of 486 amino acid residues, expressed in E. coli (protein, UniProt O15229 1-486, looked up)
Kynurenine 3-monooxygenase: MDSSVIQRKKVAVIGGGLVGSLQACFLAKRNFQIDVYEAREDTRVATFTRGRSINLALSHRGRQALKAVGLEDQIVSQGIPMRARMIHSLSGKKSAIPYGTKSQYILSVSRENLNKDLLTAAEKYPNVKMHFNHRLLKCNPEEGMITVLGSDKVPKDVTCDLIVGCDGAYSTVRSHLMKKPRFDYSQQYIPHGYMELTIPPKNGDYAMEPNYLHIWPRNTFMMIALPNMNKSFTCTLFMPFEEFEKLLTSNDVVDFFQKYFPDAIPLIGEKLLVQDFFLLPAQPMISVKCSSFHFKSHCVLLGDAAHAIVPFFGQGMNAGFEDCLVFDELMDKFSNDLSLCLPVFSRLRIPDDHAISDLSMYNYIEMRAHVNSSWFIFQKNMERFLHAIMPSTFIPLYTMVTFSRIRYHEAVQRWHWQKKVINKGLFFLGSLIAISSTYLLIHYMSPRSFLRLRRPWNWIAHFRNTTCFPAKAVDSLEQISNLISR
Recombinant kyn-3-OHase activity [1]: about 10 nmol/h·mg protein

B2: positive clone: cDNA clone encoding rat kyn-3-OHase, a deduced protein of 478 amino acid residues, expressed in Xenopus oocytes (protein)
chain: MASSDTEGKRVVVIGGGLVGALNACFLAKRNFQVDVYEAREDIRVANFMRGRSINLALSYRGRQALKAVGLEDQIVSKGVPMKARMIHSLSGKKSAIPYGNKSQYILSISREKLNKDLLTAVESYPNAKVHFGHKLSKCCPEEGILTMLGPNKVPRDITCDLIVGCDGAYSTVRAHLMKKPRFDYSQQYIPHGYMELTIPPKNGEYAMEPNCLHIWPRNAFMMIALPNMDKSFTCTLFMSFEEFEKLPTHSDVLDFFQKNFPDAIPLMGEQALMRDFFLLPAQPMISVKCSPFHLKSRCVLMGDAAHAIVPFFGQGMNAGFEDCLVFDELMDKFNNDLSVCLPEFSRFRIPDDHAISDLSMYNYIEMRAHVNSRWFLFQRLLDKFLHALMPSTFIPLYTMVAFTRIRYHEAVLRWHWQKKVINRGLFVLGSLVAIGSAYILVHHLSPRPLELLRSAWTGTSGHWNRSADISPRVPWSH
kyn-3-OHase activity, cRNA dose-response ([2]; 5 ng cRNA/oocyte, 100 mM of L-kyn): 35.7 nmoles/h/mg protein | activity vs that induced by injection of total rat kidney poly(A)+ RNA [2, 5]: about 400 fold | kyn-3-OHase activity, single positive clone [2, 5]: 3747 pmoles/h/mg protein

B3: kyn-3-OHase: kyn-3-OHase isolated from the mitochondrial outer membrane of rat liver, molecular weight of 200,000 Da (protein)
chain: B2 chain
specific activity of purified enzyme [3]: 140 nmol/min/mg | isoelectric point [4]: 5.4 pH
